Laboratory results as given in patent US20080026996A1, “Selective Vpac2 Receptor Reptide Agonists” (ELI LILLY AND COMPANY, priority 2004, published 2008).
Where no end group is shown, it is not given here. [ ]: non-standard residue; d: D form. The star is where a group is joined. hArg = N=C(N)NCCCC[C@H](N)C(=O)O; Nle = CCCC[C@H](N)C(=O)O; Orn = NCCC[C@H](N)C(=O)O; Hexanoyl = CCCCCC(=O)*; Aib = CC(C)(N)C(=O)O

T1: human VPAC2 (Homo sapiens, UniProt P41587)
T1 construct: expressed in transfected cells
T1 sequence (P41587 24-438): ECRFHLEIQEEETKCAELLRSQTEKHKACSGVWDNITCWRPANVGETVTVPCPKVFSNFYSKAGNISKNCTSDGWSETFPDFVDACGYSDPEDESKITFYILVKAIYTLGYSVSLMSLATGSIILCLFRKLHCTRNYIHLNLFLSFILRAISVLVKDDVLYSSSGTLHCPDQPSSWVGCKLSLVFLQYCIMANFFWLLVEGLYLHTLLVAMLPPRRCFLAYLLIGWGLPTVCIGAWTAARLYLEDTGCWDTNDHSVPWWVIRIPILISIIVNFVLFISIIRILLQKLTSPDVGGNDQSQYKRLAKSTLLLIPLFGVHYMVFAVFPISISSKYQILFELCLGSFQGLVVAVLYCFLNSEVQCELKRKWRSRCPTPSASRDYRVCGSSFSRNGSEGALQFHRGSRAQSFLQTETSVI

T2: rat VPAC2 receptor (Rattus norvegicus, UniProt P35000)
T2 sequence (P35000 23-437): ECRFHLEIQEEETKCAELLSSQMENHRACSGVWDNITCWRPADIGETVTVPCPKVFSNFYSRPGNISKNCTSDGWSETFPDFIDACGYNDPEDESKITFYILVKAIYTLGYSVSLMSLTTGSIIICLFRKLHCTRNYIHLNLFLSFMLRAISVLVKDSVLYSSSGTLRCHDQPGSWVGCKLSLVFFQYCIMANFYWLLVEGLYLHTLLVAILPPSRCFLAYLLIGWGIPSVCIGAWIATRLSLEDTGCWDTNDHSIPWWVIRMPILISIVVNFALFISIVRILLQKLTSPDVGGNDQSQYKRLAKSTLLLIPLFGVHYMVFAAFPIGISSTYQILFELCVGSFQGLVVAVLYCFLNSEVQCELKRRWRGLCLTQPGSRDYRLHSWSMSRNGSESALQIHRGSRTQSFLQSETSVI

T3: human VPAC1 (Homo sapiens, UniProt P32241)
T3 sequence (P32241 31-457): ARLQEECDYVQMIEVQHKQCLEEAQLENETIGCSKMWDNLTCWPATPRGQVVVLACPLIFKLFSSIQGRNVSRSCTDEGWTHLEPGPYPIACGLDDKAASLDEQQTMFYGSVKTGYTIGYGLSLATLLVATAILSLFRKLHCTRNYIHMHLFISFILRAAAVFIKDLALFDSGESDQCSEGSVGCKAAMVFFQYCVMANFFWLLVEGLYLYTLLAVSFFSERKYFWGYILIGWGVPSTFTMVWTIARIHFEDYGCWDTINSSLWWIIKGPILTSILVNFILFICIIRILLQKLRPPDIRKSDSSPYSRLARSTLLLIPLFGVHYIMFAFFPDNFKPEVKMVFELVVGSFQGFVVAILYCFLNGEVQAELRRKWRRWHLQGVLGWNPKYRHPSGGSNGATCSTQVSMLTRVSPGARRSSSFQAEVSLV

T4: rat VPAC1 receptor (rat, UniProt P30083 31-459)
T4 sequence (looked up): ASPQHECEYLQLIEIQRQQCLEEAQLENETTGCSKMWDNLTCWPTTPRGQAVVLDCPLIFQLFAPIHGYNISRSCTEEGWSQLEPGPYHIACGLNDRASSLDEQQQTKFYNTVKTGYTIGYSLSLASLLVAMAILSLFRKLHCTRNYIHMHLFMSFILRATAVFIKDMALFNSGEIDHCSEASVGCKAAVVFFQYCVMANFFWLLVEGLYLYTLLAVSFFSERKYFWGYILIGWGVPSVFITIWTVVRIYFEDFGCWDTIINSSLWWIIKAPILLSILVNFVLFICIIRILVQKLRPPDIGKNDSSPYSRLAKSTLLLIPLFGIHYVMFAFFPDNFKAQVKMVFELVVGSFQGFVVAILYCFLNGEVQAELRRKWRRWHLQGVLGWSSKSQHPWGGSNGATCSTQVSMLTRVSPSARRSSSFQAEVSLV

T5: rat VPAC2 receptor (rat, UniProt P35000 23-437)
T5 sequence (looked up): T2 sequence (P35000 23-437)

T6: human VPAC2 receptor (human, UniProt P41587 24-438)
T6 sequence (looked up): T1 sequence (P41587 24-438)

B1: P352 (peptide)
peptide: HSDAVFTDNYTRLRXQVAAXKYLQSIXXGGPSSGAPPPS
modifications: N-terminal hexanoyl (C6); Aib at 15, 20; Orn at 27, 28
B2: P264 (peptide)
peptide: Hexanoyl-HSDAVFTDNYTRLR[Aib]QVAAK[Aib]YLQSIKNKRYGGPSSGAPPPS
modifications: ends and bridges not checked
B3: P284 (peptide)
peptide: Hexanoyl-HSDAVFTDNYTRLR[Aib]QLAAK[Aib]YLQSIKNKRYGGPSSGAPPPS
modifications: ends and bridges not checked
B4: P326 (peptide)
peptide: HSDAVFTDNYTXLRXQVAAXKYLQSIXNXGGPSSGAPPPS
modifications: N-terminal hexanoyl (C6); Orn at 12, 27, 29; Aib at 15, 20
B5: P325 (peptide)
peptide: Hexanoyl-HSDAVFTDNYTRLR[Aib]Q[Nle]AA[Aib]KYLQSIKNKRYGGPSSGAPPPS
modifications: ends and bridges not checked
B6: P338 (peptide)
peptide: HSDAVFTDNYTXLRXQVAAXKYLQSIXNXXYGGPSSGAPPPS
modifications: N-terminal hexanoyl (C6); hR at 12, 27, 29, 30; Aib at 15, 20
B7: P305 (peptide)
peptide: Hexanoyl-HSDAVFTDNYTRL[hArg]KQVAAKKYLQSIKNKRYGGPSSGAPPPS
modifications: ends and bridges not checked
B8: P314 (peptide)
peptide: Hexanoyl-HSEAVFTENYTRLR[Aib]QVAA[Aib]KYLQSIKNKRYGGPSSGAPPPS
modifications: ends and bridges not checked
B9: P321 (peptide)
peptide: Hexanoyl-HSDAVFTDNYTRLR[Aib]KVAA[Aib]KYLQSIKNKRYGGPSSGAPPPS
modifications: ends and bridges not checked
B10: P322 (peptide)
peptide: Hexanoyl-HSDAVFTDNYTRLR[Aib]QIAA[Aib]KYLQSIKNKRYGGPSSGAPPPS
modifications: ends and bridges not checked
B11: P315 (peptide)
peptide: Hexanoyl-HSDAVFTDQYTRLR[Aib]QVAA[Aib]KYLQSIKQKRYGGPSSGAPPPS
modifications: ends and bridges not checked
B12: P323 (peptide)
peptide: Hexanoyl-HSDAVFTDNYTRLR[Aib]QKAA[Aib]KYLQSIKNKRYGGPSSGAPPPS
modifications: ends and bridges not checked
B13: P318 (peptide)
peptide: Hexanoyl-HSDAVFTDNYTRLK[Aib]QVAA[Aib]KYLQSIKNKRYGGPSSGAPPPS
modifications: ends and bridges not checked
B14: P308 (peptide)
peptide: Hexanoyl-HSDAVFTDNYTRL[hArg][Orn]QVAAKKYLQSIKNKRYGGPSSGAPPPS
modifications: ends and bridges not checked

How the values were obtained:
human VPAC2 [1] = target: T1, human VPAC2; assay: Alpha screen cAMP in vitro potency, human VPAC2 receptor; assay type: cell-based; details: cAMP generation; single result from two analyses performed in a single run; read-out: Human VPAC2 Receptor: Alpha Screen EC50
Summary of the method: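 Cells were detached with enzyme-free dissociation buffer, washed into stimulation buffer and used at 50,000 cells per data point. Stimuli and AlphaScreen acceptor beads were added for 60 minutes, then lysis buffer with donor beads for 60 to 120 minutes; the AlphaScreen signal reports intracellular cAMP.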

human VPAC2 [2] = target: T1, human VPAC2; assay: Filter binding assay, membranes of stable VPAC2 cell line, 125I-labeled VIP tracer (Table 2); details: read-out: Human VPAC2 Receptor Binding
Summary of the method: (§1)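 Membranes 2.5 μg/well; tracer ~40000 cpm; buffer 25 mM HEPES pH 7.4, 0.5% protease-free BSA; 1 h incubation, shaking. Glass-fibre filtration (0.5% polyethyleneamine presoak, 0.2% BSA block), 3× HEPES wash, dry 1 h at 60° C, scintillation count.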

rat VPAC2 receptor [3] = target: T2, rat VPAC2 receptor; assay: DiscoveRx in vitro potency, CHO-PO cells transiently transfected with rat VPAC 2 receptor DNA; assay type: cell-based; design: expressed in transfected cells; host or cells: CHO-PO, transient
Description: Also, the cells are washed twice. […] The stimuli are present for 30 minutes. Then, the assay buffer is gently removed.

[4] = Rat serum stability studies (remaining active peptide by DiscoveRx cAMP on CHO-VPAC2 cells); assay type: in vitro ADME
Summary of the method: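 EC50 from a DiscoveRx cAMP read-out on CHO-VPAC2 cells indexes how much peptide stays active after 18 h in rat serum at 37° C without aprotinin, against an aprotinin-protected 4° C aliquot.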

human VPAC1 = target: T3, human VPAC1; assay: Filter binding assay, membranes of cells transiently transfected with human VPAC1, 125I-labeled VIP tracer (Table 2); design: expressed in transfected cells; details: read-out: Human VPAC1 Receptor Binding
Summary of the method: as §1

rat VPAC1 receptor = target: T4, rat VPAC1 receptor; assay: cell-based or functional assay
rat VPAC2 receptor [5] = target: T5, rat VPAC2 receptor; assay: cell-based or functional assay
human VPAC2 receptor = target: T6, human VPAC2 receptor; assay: cell-based or functional assay

Row | Molecule | EC50 (human VPAC2 [1]) | IC50 (human VPAC2 [2]) | EC50 (rat VPAC2 receptor [3]) | Rat Serum Stability (estimated purity in % after 18 hours) [4] | IC50 (human VPAC1) | Rat Serum Stability (Estimated purity in % after 72 hours) [4] | EC50 cAMP, DiscoveRx (rat VPAC1 receptor) | EC50 cAMP, DiscoveRx (rat VPAC2 receptor [5]) | EC50 cAMP, Alpha Screen (human VPAC2 receptor)
1 | Hexanoyl-HSDAVFTDQYTRLR[Aib]QVAA[Aib]KYLQSIKQKRYGGPSSGAPPPS [Agonist P315] | 0.19 nM | 0.29 nM | 0.04 nM | 24.00% | > 3000 nM | – | – | – | –
2 | CCCCCC(=O)N[C@@H](Cc1c[nH]cn1)C(=O)N[C@@H](CO)C(=O)N[C@@H](CC(=O)O)C(=O)N[C@@H](C)C(=O)N[C@H](C(=O)N[C@@H](Cc1ccccc1)C(=O)N[C@H](C(=O)N[C@@H](CC(=O)O)C(=O)N[C@@H](CC(N)=O)C(=O)N[C@@H](Cc1ccc(O)cc1)C(=O)N[C@H](C(=O)N[C@@H](CCCNC(=N)N)C(=O)N[C@@H](CC(C)C)C(=O)N[C@@H](CCCNC(=N)N)C(=O)NC(C)(C)C(=O)N[C@@H](CCC(N)=O)C(=O)N[C@H](C(=O)N[C@@H](C)C(=O)N[C@@H](C)C(=O)NC(C)(C)C(=O)N[C@@H](CCCCN)C(=O)N[C@@H](Cc1ccc(O)cc1)C(=O)N[C@@H](CC(C)C)C(=O)N[C@@H](CCC(N)=O)C(=O)N[C@@H](CO)C(=O)N[C@H](C(=O)N[C@@H](CCCN)C(=O)N[C@@H](CCCN)C(=O)NCC(=O)NCC(=O)N1CCC[C@H]1C(=O)N[C@@H](CO)C(=O)N[C@@H](CO)C(=O)NCC(=O)N[C@@H](C)C(=O)N1CCC[C@H]1C(=O)N1CCC[C@H]1C(=O)N1CCC[C@H]1C(=O)N[C@@H](CO)C(=O)O)[C@@H](C)CC)C(C)C)[C@@H](C)O)[C@@H](C)O)C(C)C [Agonist P352] | 0.14 nM | 0.6 nM | 0.09 nM | 45.09% | > 3000 nM | 2.2% | – | – | –
3 | Hexanoyl-HSDAVFTDNYTRLR[Aib]QKAA[Aib]KYLQSIKNKRYGGPSSGAPPPS [Agonist P323] | 0.23 nM | 0.32 nM | 0.07 nM | 16.81% | > 3000 nM | – | – | – | –
4 | Hexanoyl-HSDAVFTDNYTRLR[Aib]KVAA[Aib]KYLQSIKNKRYGGPSSGAPPPS [Agonist P321] | 0.38 nM | 0.29 nM | 0.04 nM | – | 429 nM | – | – | – | –
5 | B1 | – | – | – | – | – | – | 4.35 nM | 0.09 nM | 0.14 nM
6 | B2 | – | – | – | – | – | – | 4.01 nM | 0.1 nM | 0.1 nM
7 | B3 | – | – | – | – | – | – | 0.44 nM | 0.07 nM | 0.18 nM
8 | B4 | – | – | – | – | – | – | 4.53 nM | 0.09 nM | 0.21 nM
9 | B5 | – | – | – | – | – | – | 1.46 nM | 0.04 nM | 0.24 nM
10 | B6 | – | – | – | – | – | – | 5.16 nM | 0.07 nM | 0.46 nM
11 | B7 | – | – | – | – | – | – | 3.71 nM | 0.04 nM | 0.17 nM
12 | B8 | – | – | – | – | – | – | 29.2 nM | 0.12 nM | 0.22 nM
13 | B9 | – | – | – | – | – | – | 0.11 nM | 0.04 nM | 0.38 nM
14 | B10 | – | – | – | – | – | – | 0.5 nM | 0.04 nM | 0.22 nM
15 | B11 | – | – | – | – | – | – | 1.18 nM | 0.04 nM | 0.19 nM
16 | B12 | – | – | – | – | – | – | 4.41 nM | 0.07 nM | 0.23 nM
17 | B13 | – | – | – | – | – | – | 9.96 nM | 0.09 nM | 0.32 nM
18 | B14 | – | – | – | – | – | – | 9.74 nM | 0.09 nM | 0.26 nM
